Test results as given in patent US20240010747A1, “ANTI-MRP4 (ENCODED BY ABCC4 GENE) ANTIBODIES AND USES THEREOF” (Kenjockety Biotechnology, Inc., priority 2020, published 2024).

T1: human ABCC4 (human, UniProt O15439 1-1325)
T1 construct: Expressed on murine C6 cells stably transfected with human ABCC4 cDNA with C-terminal FLAG tag; also called MRP4; Multidrug resistance protein 4; not shown: C-terminal fused FLAG tag
T1 sequence: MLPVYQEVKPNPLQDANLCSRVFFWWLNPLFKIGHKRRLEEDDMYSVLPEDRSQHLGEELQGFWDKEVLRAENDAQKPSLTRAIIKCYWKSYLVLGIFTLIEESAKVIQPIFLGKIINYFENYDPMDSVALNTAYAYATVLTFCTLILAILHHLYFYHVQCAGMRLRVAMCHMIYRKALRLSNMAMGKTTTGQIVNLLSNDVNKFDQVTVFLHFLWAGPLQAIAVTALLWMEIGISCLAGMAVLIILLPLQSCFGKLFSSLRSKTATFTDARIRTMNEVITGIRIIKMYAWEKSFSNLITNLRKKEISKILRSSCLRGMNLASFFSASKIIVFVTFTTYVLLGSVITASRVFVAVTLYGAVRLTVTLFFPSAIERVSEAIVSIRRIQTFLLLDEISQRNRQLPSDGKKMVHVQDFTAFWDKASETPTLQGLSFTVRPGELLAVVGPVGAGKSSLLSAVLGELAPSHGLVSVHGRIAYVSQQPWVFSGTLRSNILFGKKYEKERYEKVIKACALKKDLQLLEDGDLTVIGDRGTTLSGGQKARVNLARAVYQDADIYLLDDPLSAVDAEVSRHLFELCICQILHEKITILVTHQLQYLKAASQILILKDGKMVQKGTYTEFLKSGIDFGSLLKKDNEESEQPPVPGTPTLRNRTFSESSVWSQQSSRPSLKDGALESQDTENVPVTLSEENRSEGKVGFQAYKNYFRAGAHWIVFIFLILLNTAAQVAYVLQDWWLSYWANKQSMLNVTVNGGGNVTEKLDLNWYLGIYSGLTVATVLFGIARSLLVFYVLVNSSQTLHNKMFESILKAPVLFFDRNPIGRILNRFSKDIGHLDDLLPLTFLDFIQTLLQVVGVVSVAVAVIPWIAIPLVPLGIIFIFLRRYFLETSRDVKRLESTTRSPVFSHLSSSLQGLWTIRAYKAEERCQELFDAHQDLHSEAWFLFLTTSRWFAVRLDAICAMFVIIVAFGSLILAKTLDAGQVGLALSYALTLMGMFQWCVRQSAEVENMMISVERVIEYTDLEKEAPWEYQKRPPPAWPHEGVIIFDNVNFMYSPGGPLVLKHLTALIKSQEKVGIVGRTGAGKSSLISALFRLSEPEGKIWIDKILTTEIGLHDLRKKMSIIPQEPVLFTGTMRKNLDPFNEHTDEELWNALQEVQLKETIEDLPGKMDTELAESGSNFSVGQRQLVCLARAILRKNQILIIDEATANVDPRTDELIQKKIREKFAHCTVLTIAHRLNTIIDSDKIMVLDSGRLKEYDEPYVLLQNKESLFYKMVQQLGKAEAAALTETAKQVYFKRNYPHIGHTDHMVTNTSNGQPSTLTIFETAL

T2: human ABCC4 (Homo sapiens, UniProt O15439)
T2 construct: expressed in transfected cells
T2 sequence (O15439 1-1325): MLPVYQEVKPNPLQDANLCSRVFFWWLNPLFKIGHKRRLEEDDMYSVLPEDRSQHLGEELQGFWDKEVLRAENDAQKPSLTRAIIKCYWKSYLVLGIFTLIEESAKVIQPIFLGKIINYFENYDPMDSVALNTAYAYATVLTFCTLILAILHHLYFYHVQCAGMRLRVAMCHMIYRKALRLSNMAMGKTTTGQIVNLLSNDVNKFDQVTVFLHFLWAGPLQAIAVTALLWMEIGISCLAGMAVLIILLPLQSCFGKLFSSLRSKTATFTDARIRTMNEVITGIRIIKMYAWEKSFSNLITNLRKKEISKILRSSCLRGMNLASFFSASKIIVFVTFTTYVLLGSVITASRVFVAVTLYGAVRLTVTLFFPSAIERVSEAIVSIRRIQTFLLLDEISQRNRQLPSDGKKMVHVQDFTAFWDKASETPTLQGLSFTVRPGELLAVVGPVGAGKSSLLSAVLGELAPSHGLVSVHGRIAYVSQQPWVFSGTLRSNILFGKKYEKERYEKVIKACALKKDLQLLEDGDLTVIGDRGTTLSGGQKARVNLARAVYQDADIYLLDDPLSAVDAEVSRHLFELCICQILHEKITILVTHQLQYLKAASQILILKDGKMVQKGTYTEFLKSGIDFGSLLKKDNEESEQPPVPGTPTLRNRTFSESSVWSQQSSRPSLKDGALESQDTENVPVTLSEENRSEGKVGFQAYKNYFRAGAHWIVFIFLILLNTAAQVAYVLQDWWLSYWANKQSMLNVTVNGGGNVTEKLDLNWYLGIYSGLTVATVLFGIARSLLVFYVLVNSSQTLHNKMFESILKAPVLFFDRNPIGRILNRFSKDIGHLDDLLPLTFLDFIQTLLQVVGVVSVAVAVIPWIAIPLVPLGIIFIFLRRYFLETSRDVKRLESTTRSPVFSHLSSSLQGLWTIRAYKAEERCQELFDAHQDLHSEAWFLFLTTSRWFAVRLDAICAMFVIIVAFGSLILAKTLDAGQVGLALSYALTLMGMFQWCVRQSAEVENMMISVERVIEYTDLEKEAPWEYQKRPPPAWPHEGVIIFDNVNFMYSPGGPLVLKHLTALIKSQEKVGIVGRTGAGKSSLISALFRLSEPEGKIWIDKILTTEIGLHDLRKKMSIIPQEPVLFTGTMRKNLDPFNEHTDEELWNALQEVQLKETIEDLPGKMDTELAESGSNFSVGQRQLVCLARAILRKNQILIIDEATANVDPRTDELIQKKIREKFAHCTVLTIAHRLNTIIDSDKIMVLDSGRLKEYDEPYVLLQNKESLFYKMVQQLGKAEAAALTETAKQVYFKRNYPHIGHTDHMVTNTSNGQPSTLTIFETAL


Experiments:
cynomolgus ABCC4 [1] = assay: Flow cytometry (FACS) binding to C6 cells stably transfected to express cynomolgus ABCC4 (different experiment, different C6.cC4 cell line, Table 4); design: key to Cynomolgus ABCC4 binding: Negative (−)=Rmax (MFI) below background level; Positive (+)=MFI>3× background level; conditions: for Cynomolgus ABCC4 binding: different C6.cC4 cell line, C6 cells stably transfected to express cynomolgus ABCC4, FACS, Table 4
Procedure, shortened: (§1)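 Murine C6 cells stably expressing FLAG-tagged human or cynomolgus ABCC4 incubated 30 min on ice with antibodies, either 5 ug/mL or serially diluted from 100 ug/mL, in PBS+2% FBS+0.02% azide. Detection with PE anti-human IgG F(ab′)2 by flow cytometry; EC50 at half-maximal MFI; negative below background, positive >3× background.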

human ABCC4 [2] = molecular target: T1, human ABCC4; assay: FACS, C6 cells stably expressing human ABCC4; + = MFI>3x background
Procedure: (§2) Antibody binding to cells was evaluated by flow cytometry. Murine C6 cells stably transfected to express human or cynomolgus ABCC4 were washed once in flow cytometry buffer (PBS+2% FBS+0.02% sodium azide), resuspended at 2×10\hat{ }6 cells/mL in flow cytometry buffer, and dispensed into 96-well microtiter plates at 0.1 mL/well. Recombinant antibodies were added to cells at 5 ug/mL for initial binding confirmation, or serially diluted from 100 ug/mL in flow cytometry buffer. After incubating cells on ice for 30 min, cells were washed twice with flow cytometry buffer. Bound antibody was detected with PE-labeled F(ab′)₂ fragment goat anti-human IgG (Jackson ImmunoResearch) and evaluated on an Attune N×T flow cytometer. EC50 is calculated to be the concentration of antibody that gives half maximal response.

human ABCC4 [3] = molecular target: T2, human ABCC4; assay: Flow cytometry (FACS) binding to C6 cells stably transfected to express human ABCC4 (different experiment, Table 4); conditions: for Human ABCC4 binding: C6 cells stably transfected to express human ABCC4, FACS, different experiment, Table 4
Procedure, shortened: as §1

cynomolgus ABCC4 [4] = assay: Flow cytometry (FACS) binding to C6 cells stably transfected to express cynomolgus ABCC4 (Table 3 study); design: key to Cynomolgus ABCC4 binding: Negative (−) is defined as maximum response (Rmax(MFI)) below background level; Positive (+) is defined as MFI>1000; conditions: C6 cells stably transfected to express cynomolgus ABCC4, FACS; Table 3
Procedure: (§3) Binding titration of recombinant antibodies to ABCC4 transfectants was performed by serial dilution of antibodies from about 666 nM. Diluted antibody in flow cytometry buffer was incubated with cells on ice for 30 min. After 2 washes with flow cytometry buffer, bound antibody was detected with PE-labeled F(ab′)2 fragment goat anti-human IgG (Jackson ImmunoResearch) diluted 1:200 in flow cytometry buffer and incubated with cells for 20 min on ice. After 2 washes with flow cytometry buffer fluorescence was measured on an Attune N×T flow cytometer. Data were analyzed with GraphPad Prism 8.0 software to determine EC50's.
(§4) Human embryonic kidney HEK 293T cells and murine C6 (ATCC CCL-107) were transfected with human or cynomolgus ABCC4 cDNA with C-terminal fused FLAG tag in a pMONO-hygro vector with Lipofectamine 3000 (Invitrogen #L3000001). The cells were treated with 0.2 mg/ml and 0.5 mg/ml hygromycin respectively for about 2 weeks while cultivated in DMEM and 10% FBS with 0.2 mg/ml hygromycin and 0.5 mg/ml hygromycin, respectively. The cells were washed with PBS, and stained with […] of anti-FLAG-PE after fixing and permeablization. Clones expressing ABCC4 were single-cell sorted into 200 μl DMEM with 10% FBS using a BD Aria FACS machine and cultivated in 96 well plates using standard techniques in an incubator at 37° C. and 5% CO 2. Two weeks later clones expressing high levels of ABCC4 were screened and amplified.
as §2, with “2×10^6” for “2×10\hat{ }6”, “F(ab′)2” for “F(ab′)₂”
(§5) Table 3 lists the following characteristics of the rat anti-ABCC4 antibodies tested: binding to C6 cells stably transfected to express human ABCC4 measured by FACS and binding to C6 cells stably transfected to express cynomolgus ABCC4 measured by FACS. Negative (−) is defined as maximum response (Rmax(MFI)) below background level. Positive (+) is defined as MFI>1000.

human ABCC4 [5] = molecular target: T2, human ABCC4; assay: Flow cytometry (FACS) binding to C6 cells stably transfected to express human ABCC4 (Table 3 study); conditions: C6 cells stably transfected to express human ABCC4, FACS; Table 3
Procedure: as §3, §4
as §2, with “2×10^6” for “2×10\hat{ }6”, “F(ab′)2” for “F(ab′)₂”
as §5

binding result (human ABCC4 [2])	Human ABCC4 binding (human ABCC4 [3])	binding to human ABCC4 expressed on cell surface (human ABCC4 [3]; Table 4 study, stated in words)	Human ABCC4 binding (human ABCC4 [5])	Molecule	binding to cynomolgus ABCC4 expressed on cell surface (cynomolgus ABCC4 [1]; Table 4 study, stated in words)	Cynomolgus ABCC4 binding (cynomolgus ABCC4 [1])	Cynomolgus ABCC4 binding (cynomolgus ABCC4 [4])
binds	+ (Positive (+)=MFI>3× background level)	bind to both human and cynomolgus ABCC4		C4.1152 (antibody, V domains shown) VH: EVKLVESDGGLVQPGRSLKLSCAASGFTFSDFYMAWVRQAPTKGLEWIASISHDGRNTYYRDSVKGRFTISRDNAKRTLYLQMDSLRSEDTATYYCASLTARYKGVMGAWGQGTLVTVSS VL: DVVMTQSPSHLAASPGESVSINCKASKNIYKYLAWYQQKPGKTNKLLIYSGSTLQSGTPSRFSGSGSGSDFTLTIRNLEPEDFGLYYCQHHNEYPPTFGGGTKLEIK	bind to both human and cynomolgus ABCC4	+ (Positive (+)=MFI>3× background level)	
	+ (Positive (+)=MFI>3× background level)		+ (Positive (+) is defined as MFI>1000)	C4.884: anti-ABCC4 antibody raised in rats; VH SEQ ID NO: 1, VL SEQ ID NO: 124 (antibody, V domains shown) VH: EVQLVESGPGLVQPSQTLSLTCTVSGFSLTSNSVHWVRQPPGKGLEWIGAIWSGGSTDYNSALKSRLSISRDTSKSQVFLKMNSLQTEDTAIYFCTGLIFPYWGQGASVTVSS VL: DVVMTQTPSILSGTLGRSVSISCRSSQSLLDSDGTTYLYWFLQRPGQSPQRLIYLVSNLGSGVPNRFSGSGSGTDFTLKISGVEAEDLGVYYCMQATHVPFTFGSGTKLEIK		−	−
	+ (Positive (+)=MFI>3× background level)		+ (Positive (+) is defined as MFI>1000)	C4.925: anti-ABCC4 antibody raised in rats; VH SEQ ID NO: 3, VL SEQ ID NO: 126 (antibody, V domains shown) VH: EVQLVESGGGLVQPGRSLKLSCAASGFTFSDYYMAWVRQAPTKGLEWVAYINYDGGSTHYGDSVKGRFTISRDNEKSTLYLQMNSLRSEDMATYYCARENYGYNSFDYWGQGASVTVSS VL: DIQVTQSPASLSASLGETISIECLTSEDISSYLTWYQQKPGKSPHLLIYGANSLQAGVPSRFSGSGSGTQYSLKISSMQPEDEGDYFCQQSYKFPLTFGSGTKLELK		−	−
